The text below walks through data of patent US20030114404, “Vascular endothelial growth factor (VEGF) nucleic acid ligand complexes” (Gilead Sciences, Inc., published 2003).

The Kd is the equilibrium constant for the complex coming apart.

The target in data set [1] is T1, VEGF165 (Homo sapiens, UniProt P15692-4 P15692-4:27-191). As to the kind of experiment: filter; 37 C. The following applies: tags: carrier-free, Sf 21 insect cell expressed, R & D Systems; chain copies: 2 (inferred). Here is the method:
(§1) Nucleic Acid Ligands radiolabeled during transcription by incorporation of α-[³²P]-labeled NTPs, or after synthesis using γ-[³²P]-ATP and T4 polynucleotide kinase, were incubated in low concentration (between 20 and 70 pM) with varying concentrations of VEGF or other growth factors at 37° C. for 15 minutes. Incubations were in TBS, PBS, or HEPES-buffered saline (HBS), pH 7.4, with or without the addition of supplemental divalent cations. Samples were passed through prewashed 0.45 μ Type HA filters (Millipore) followed by a 5-10 ml wash with binding buffer. Filters were immersed in scintillant and counted to quantitate the amount of protein-bound RNA retained by each filter. The equilibrium dissociation constant (KD) of Nucleic Acid Ligand binding to a specific protein was calculated from the data points as described in Green et al. (1996) Biochem. 35: 14413-14424.
Stabilization of oligonucleotides to nucleases is likely to be critical to their success as therapeutic or diagnostic agents. Unfortunately, 2′-OMe-modified nucleoside triphosphates are not generally accepted as substrates by RNA polymerases under standard reaction conditions. However, 2′-OMe purines may be introduced into a specific oligonucleotide by chemical synthesis. […] To identify those purine positions for which 2′-OMe substitution is compatible with high affinity binding to VEGF, several syntheses of ligands t2, t22 and t44 were prepared in which five or six purines at a time were partially substituted with the modified nucleotide (described in Example 3). Affinity selection of each partially substituted library was used to isolate those molecules that retained substantial affinity for VEGF.
Target sequence in this assay (P15692 other isoform, or with tags, fused parts or gaps): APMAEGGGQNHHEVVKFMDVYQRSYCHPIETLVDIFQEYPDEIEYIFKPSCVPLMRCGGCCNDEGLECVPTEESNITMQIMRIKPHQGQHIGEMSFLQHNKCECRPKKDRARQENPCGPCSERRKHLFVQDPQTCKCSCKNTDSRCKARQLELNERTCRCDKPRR

The target of data set [2] is VEGF121 (Homo sapiens, UniProt P15692-9 P15692-9:27-147). Nature of the data set: filter; no measurable affinity. Particulars: tags: carrier-free, E. coli expressed, R & D Systems; chain copies: 2 (inferred).
Chain of VEGF121 (P15692 other isoform, or with tags, fused parts or gaps): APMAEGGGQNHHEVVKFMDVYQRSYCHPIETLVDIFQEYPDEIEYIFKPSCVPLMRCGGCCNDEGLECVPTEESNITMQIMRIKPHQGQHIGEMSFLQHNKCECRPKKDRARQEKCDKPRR
Data set [3] addresses T2, PlGF (UniProt P49763-2 P49763-2:19-149).
T2 sequence: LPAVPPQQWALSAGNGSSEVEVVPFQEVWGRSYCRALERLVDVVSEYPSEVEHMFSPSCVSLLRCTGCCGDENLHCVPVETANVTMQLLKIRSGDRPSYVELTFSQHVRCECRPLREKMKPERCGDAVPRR
Nature of the data set: filter; no binding to PlGF homodimer. The following applies: tags: carrier-free, E. coli expressed, R & D Systems; chain copies: 2 (stated homodimer). Here is the method:
as §1
VEGF is a highly conserved protein across species, the human VEGF₁₆₅ and mouse VEGF₁₆₄ isoforms showing 88% sequence identity. The truncated, 2′-OMe-substituted ligands bound equally well to human and murine VEGF. […] Heterodimers between VEGF and PIGF have recently been isolated from the supernatants of both normal and tumor-derived cell lines, and such heterodimers show activity in binding to one of two high affinity VEGF receptors and in inducing responses in cultured endothelial cells. The biological relevance of VEGF/PIGF heterodimers is unknown. […] Alternatively, the structure of the VEGF subunit may be altered by participation in a heterodimer with PIGF with consequent distortion of the Nucleic Acid Ligand binding surface.

Data set [4] concerns the target T1, VEGF165. As to the kind of experiment: filter; s.d. 50; 37 C; divalent cation independent. The following applies: tags: carrier-free, Sf 21 insect cell expressed, R & D Systems; chain copies: 2 (inferred). On the procedure: as §1
(§2) 2′OH nucleotides are indicated in bold, and 2′OMe nucleotides are indicated in plain text.

For data set [5], the target named is T1, VEGF165. As to the kind of experiment: filter; divalent cations replaced with EGTA; CaCl2 restores binding, MgCl2 does not. The following applies: tags: carrier-free, Sf 21 insect cell expressed, R & D Systems; chain copies: 2 (inferred). On the procedure:
as §1
Ligands in Families 1 and 2 were selected in the presence of magnesium cations while Family 3 ligands were selected in a buffer containing both magnesium and calcium. Since divalent cations may contribute to RNA/protein interactions through nonspecific or specific stabilization of high affinity RNA structures, we asked whether magnesium and/or calcium were required for the high affinity binding of representative ligands to VEGF.

Data set [6] has as its target T1, VEGF165. As to the kind of experiment: filter; s.d. 11; text gives 49 pM; 37 C; calcium required. Particulars: tags: carrier-free, Sf 21 insect cell expressed, R & D Systems; chain copies: 2 (inferred). Here is the method: as §1, §2
Data set [7] has as its target T3, VEGF164 (Mus musculus, UniProt Q00731-2 Q00731-2:27-190).
T3 sequence: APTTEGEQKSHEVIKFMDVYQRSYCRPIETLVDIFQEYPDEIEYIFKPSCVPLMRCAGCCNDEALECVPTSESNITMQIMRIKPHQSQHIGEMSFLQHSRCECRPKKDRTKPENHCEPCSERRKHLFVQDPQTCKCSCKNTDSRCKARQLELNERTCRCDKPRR
Nature of the data set: filter; binds equally well to human and murine VEGF. The following applies: tags: carrier-free, Sf 21 insect cell expressed, R & D Systems; chain copies: 2 (inferred). On the procedure:
as §1
(§3) VEGF is a highly conserved protein across species, the human VEGF₁₆₅ and mouse VEGF₁₆₄ isoforms showing 88% sequence identity. The truncated, 2′-OMe-substituted ligands bound equally well to human and murine VEGF. […] Heterodimers between VEGF and PIGF have recently been isolated from the supernatants of both normal and tumor-derived cell lines, and such heterodimers show activity in binding to one of two high affinity VEGF receptors and in inducing responses in cultured endothelial cells. […]

For data set [8], the target named is T1, VEGF165. As to the kind of experiment: filter; s.d. 36; 37 C; divalent cation independent. The following applies: tags: carrier-free, Sf 21 insect cell expressed, R & D Systems; chain copies: 2 (inferred). On the procedure: as §1, §2
Data set [9] addresses T1, VEGF165. Nature of the data set: filter; 37 C; variable region ends GGCT in table, GGGU in listing. The following applies: tags: carrier-free, Sf 21 insect cell expressed, R & D Systems; chain copies: 2 (inferred). On the procedure: as §1
Data set [10] deals with T1, VEGF165. Nature of the data set: filter; 37 C. The following applies: tags: carrier-free, Sf 21 insect cell expressed, R & D Systems; chain copies: 2 (inferred). On the procedure:
as §1
The shared primary and secondary structural motifs that define each sequence family hint at the minimal sequence elements required for high affinity binding to VEGF. Nested truncations of a representative ligand from each family (indicated by gray boxes in Table 2) were produced by chemical synthesis and their relative affinities for VEGF were determined (Table 3). Truncated versions of ligands VP30.22, VP30.2 and VT30.44 were prepared by chemical synthesis and their affinities for VEGF were determined as described in Example 3. Initial truncations (t22, t2, t44) were further refined by synthesis of oligonucleotides with additional bases lacking from the 5′ and/or 3′ ends. In order to initiate the chemical synthesis, the 3′-most nucleotide of several of the ligands was modified either by substitution of 2′-OH-cytidine for 2′-F-cytidine (underlined) or by addition of a 3′-3′-linked deoxythymidine “cap” (asterisks). The length of each oligonucleotide (minus the cap) and its high affinity KD for binding to VEGF are shown.
The source holds these as a separate data set.

Data set [11] has as its target T1, VEGF165. Nature of the data set: filter; 37 C; variable region starts CCCC in table, CGCC in listing. The following applies: tags: carrier-free, Sf 21 insect cell expressed, R & D Systems; chain copies: 2 (inferred). On the procedure:
as §1

Data set [12] deals with T3, VEGF164. As to the kind of experiment: filter; bound equally well to human and murine VEGF. The following applies: tags: carrier-free, Sf21-expressed, R&D Systems; chain copies: 2. On the procedure:
as §1, §3

GACGAUGCGGUAGGAAGAAUUGGAAGCGC (ssRNA, 2'-F pyrimidines, 2'-OMe purines except 2'-OH G10, G22) [t22OMe (OH-10,22)]: the Kd in data set [1] came out at 4 nM.

As for GCGAACCGAUGGAAUUUUUGGACGCUCGC (ssRNA, 2'-F pyrimidines, 2'-OMe purines except 2'-OH A5, G20), the binding result in data set [2] and in data set [3] was “no binding” each time. This molecule also gave a Kd in data set [4] of 0.14 nM.

As for GACGAUGCGGUAGGAAGAAUUGGAAGCGC (ssRNA, 2'-F pyrimidines, 2'-OMe purines except 2'-OH G10, A12) [t22OMe (OH-10,12)], the dissociation constant (Kd) in data set [1] was determined as 0.02 nM.

Turning to CGGAAUCAGUGAAUGCUUAUACAUCCG (ssRNA, 2'-F pyrimidines, 2'-OMe purines except 2'-OH A4, A5) [t44-OMe], the results for the Kd in data set [5] and in data set [6] were over 100 nM and 0.051 nM, respectively. Moreover, the binding result was “no binding” in data set [2], “no binding” in data set [3] and “binds” in [7].

GCGGUAGGAAGAAUUGGAAGCGC (ssRNA, 2'-F pyrimidines, 2'-OMe purines except 2'-OH G4, A6) came in with a Kd in data set [8] of 0.067 nM. The binding result in data set [2] and in data set [3] was “no binding” in each case.

B1: VP40.39 (ssRNA)
RNA: GGGAGGACGAUGCGGCAGUUAAUUAACUUGAGUUGUGAUGUGUGUCGUUAUGGGUCAGACGACUCGCCCGA
modifications: 2'-F pyrimidines
Consider B1, for which, in [9], binding was put at a Kd of 73 nM.

Molecule CGAACCGAUGGAAUUUUUGGACGCUCG (ssRNA, 2'-F pyrimidines) [t2b] displayed a Kd in [10] of 0.1 nM.

B2: VP30.29 (ssRNA)
RNA: GGGAGGACGAUGCGGCGCCACUUUGGAAGUUAUUGAAUUUCGCGUCAGACGACUCGCCCGA
modifications: 2'-F pyrimidines
Consider B2, for which binding in [11] was characterised by a dissociation constant (Kd) of 0.007 nM.

B3: t2d (ssRNA)
RNA: AACCGAUGGAAUUUUUGGACGCU
modifications: 2'-F pyrimidines, N24 = 3'-3' inverted dT [24 = 3'-3' inverted dT (N replaced by T); 2'-F pyrimidines at 3,4,7,12,13,14,15,16,20,22,23]
Regarding B3, the affinity in data set [10], expressed as Kd, was 20 nM.

In data set [10], CGGAAUCAGUGAAUGCUUAUACAUCCG (ssRNA, 2'-F pyrimidines) [t44a] registered a Kd of 0.01 nM.

On to GCGGUAGGAAGAAUUGGAAGCGC (ssRNA, 2'-F pyrimidines except 2'-OH C23) [t22c], for which, in data set [10], the affinity, expressed as Kd, was 0.09 nM.

Consider GCGGUAGGAAGAAUUGGAAGCGC (ssRNA, 2'-F pyrimidines; 2'-OMe purines except 2'-OH G4 and A6), for which the binding result in data set [12] is reported as “binds”.

Take GCGAACCGAUGGAAUUUUUGGACGCUCGC (ssRNA, 2'-F pyrimidines; 2'-OMe purines except 2'-OH A5 and G20): the binding result in [12] is “binds”.

B4: t2c (ssRNA)
RNA: GAACCGAUGGAAUUUUUGGACGCUC
modifications: 2'-F pyrimidines, N26 = 3'-3' inverted dT [26 = 3'-3' inverted dT (N replaced by T); 2'-F pyrimidines at 4,5,8,13,14,15,16,17,21,23,24,25]
In data set [10], B4 showed a Kd of 0.2 nM.

In turn, GCGAACCGAUGGAAUUUUUGGACGCUCGC (ssRNA, 2'-F pyrimidines except 2'-OH C29) [t2a] gave a Kd in [10] of 0.04 nM.

Consider GGCGAACCGAUGGAAUUUUUGGACGCUCGCC (ssRNA, 2'-F pyrimidines, 2'-OMe purines except 2'-OH A6, G21) [t2OMe (OH-6,21)], for which the Kd in data set [1] stood at 0.06 nM.

With GGCGAACCGAUGGAAUUUUUGGACGCUCGCC (ssRNA, 2'-F pyrimidines, 2'-OMe purines except 2'-OH A6) [t2OMe (OH-6)], the equilibrium dissociation constant (Kd) in data set [1] came to 0.5 nM.

As to GGCGAACCGAUGGAAUUUUUGGACGCUCGCC (ssRNA, 2'-F pyrimidines, 2'-OMe purines except 2'-OH G21) [t2OMe (OH-21)], the affinity in data set [1], expressed as Kd, was 20 nM.

With CGGUAGGAAGAAUUGGAAGCGC (ssRNA, 2'-F pyrimidines except 2'-OH C22) [t22d], the Kd in [10] stood at 0.1 nM.

The molecule GCGGAAUCAGUGAAUGCUUAUACAUCCGC (ssRNA, 2'-F pyrimidines, 2'-OMe purines except 2'-OH A5, A6) [t44OMe (OH-5,6)] yielded a Kd in [1] of 0.04 nM.

B5: t44 (ssRNA)
RNA: GCGGAAUCAGUGAAUGCUUAUACAUCCGC
modifications: 2'-F pyrimidines, N30 = 3'-3' inverted dT [30 = 3'-3' inverted dT (N replaced by T); 2'-F pyrimidines at 2,7,8,11,15,17,18,19,21,23,25,26,27,29]
In data set [10], B5 showed a Kd of 0.01 nM.

In the case of GACGAUGCGGUAGGAAGAAUUGGAAGCGC (ssRNA, 2'-F pyrimidines, 2'-OMe purines except 2'-OH G10, A12, G22) [t22OMe (OH-10,12,22)], the Kd in data set [1] is 0.01 nM.

On to GACGAUGCGGUAGGAAGAAUUGGAAGCGC (ssRNA, 2'-F pyrimidines, 2'-OMe purines except 2'-OH A12, G22) [t22OMe (OH-12,22)], for which the Kd in data set [1] was found to be 0.09 nM.

In data set [10], GGAAUCAGUGAAUGCUUAUACAUCC (ssRNA, 2'-F pyrimidines except 2'-OH C25) [t44b] returned a Kd of 0.06 nM.
